Two molecules from article PMC3102117, “L,L-Diaminopimelate Aminotransferase from Chlamydomonas reinhardtii: A Target for Algaecide Development” (PLoS ONE, 2011) can be followed below.

In data set [1] the target is L,L-diaminopimelate aminotransferase from Chlamydomonas reinhardtii (Chlamydomonas reinhardtii). Description: AUC; sedimentation velocity, 9.2 µM (0.45 mg/mL) Cr-DapL, 20 °C, 50 mM HEPES, 0.5 mM DTT, 1 mM EDTA, 50 mM NaCl pH 8.0, 45,000 rpm; c(s) and c(M) distributions in SEDFIT.
Substrate in data set [2]: O=C(O)CCC(=O)C(=O)O
The data set can be described thus: purified protein. The format is biochemical, Chlamydomonas reinhardtii. Conditions: reverse direction, amino acceptor, saturating L,L-DAP, 0.3 mM NADPH, 50 mM NH4Cl, 100 mM HEPES-KOH pH 7.6, 30 °C.

Substrate in data set [3]: O=C(O)C1=N[C@H](C(=O)O)CCC1
The data set can be described thus: purified protein. Conditions: forward direction, co-substrate glutamate 5.0 mM, THDPA generated in situ from meso-DAP by C. glutamicum Ddh with NADP, 100 mM HEPES-KOH pH 7.6. The format is biochemical, Chlamydomonas reinhardtii.

Substrate in data set [4]: N[C@@H](CCC[C@H](N)C(=O)O)C(=O)O
Description: purified protein. Type of data set: biochemical, Chlamydomonas reinhardtii. The note with it: reverse direction, amino donor, saturating 2-oxoglutarate, 0.3 mM NADPH, 50 mM NH4Cl, 100 mM HEPES-KOH pH 7.6, 30 °C.

Substrate in data set [5]: N[C@@H](CCC(=O)O)C(=O)O
The data set can be described thus: purified protein. Type of data set: biochemical, Chlamydomonas reinhardtii. Conditions: forward direction, amino donor, saturating THDPA generated in situ from meso-DAP by C. glutamicum Ddh, 100 mM HEPES-KOH pH 7.6.

Take “L,L-diaminopimelate aminotransferase from Chlamydomonas reinhardtii (enzyme)”: the stoichiometry N – broadly, the number of molecules, sites or subunits per partner or assembly – in data set [1] was determined as 2.

B1: Cr-DapL (Chlamydomonas reinhardtii) (protein)
chain: MQLNVRSTASGARSSTRSRRMTAVVQAVAQRAGTIDVQRNENFGKLRAGYLFPEIARRRKAHQEKNPDAKIISLGIGDTTEPLPKYIADAMAKAAAGLATREGYSGYGAEQGQGALREAVASTFYGHAGRAADEIFISDGSKCDIARIQMMFGSKPTVAVQDPSYPVYVDTSVMMGMTGDHNGTGFDGIEYMVCNPDNHFFPDLSKAKRTDIIFFCSPNNPTGAAATRAQLTELVNFARKNGSILVYDAAYALYISNPDCPKTIYEIPGADEVAIETCSFSKYAGFTGVRLGWTVVPKALKYANGEPVHADWNRVMTTCFNGASNIVQAGGLACLQPEGLKEMNAMIKFYKENAQILKTTFTEMGFSVYGGDDAPYIWVGFPGKPSWDVFAEILERCNIVTTPGSGFGPAGEGFVRASAFGSRENILEAVRRFKEAYGKRN
notes: monomeric mass 48,830 Da; dimer; EC 2.6.1.83
As to B1, the Km (as a rule, the substrate concentration at which the rate is half of its maximum) in the data set “purified protein [2]” was 2200 ± 700 µM; in “purified protein [3]”, 100 ± 10 µM; in the data set “purified protein [4]”, 300 ± 20 µM; in “purified protein [5]”, 900 ± 400 µM. In addition, the kcat (in general, the number of substrate molecules converted per active site and unit of time at saturation) in the data set “purified protein [2]” was determined as 19.0 s⁻¹; in “purified protein [3]” it was 1.1 s⁻¹; in “purified protein [4]”, 19 s⁻¹; in “purified protein [5]”, 1.1 s⁻¹. Besides, the Vmax (usually the rate approached at saturating substrate) in the data set “purified protein [3]” turned out to be 0.68 µmol/min/mg; in the data set “purified protein [4]”, 11.6 µmol/min/mg.
